Reference: the FLAb antibody collection
Several values for one entry are separate records, joined by “and”; a condition that tells them apart may be missing. Equal values may be shown once.

B1: unnamed (protein)
chain 1: QVQLQQPGAELVEPGGSVKLSCKASGYTFTSHWMHWVKQRPGQGLEWIGEINPSSGRNNYNEKFKSKATLTVDKSSSTAYMQFSSLTSEDSAVYYCVRYYGYDEAMDYWGQGTSVTVSS
chain 2: DIVMTQAAFSNPVTLGTSASISCRSSKSLLHSNGITYLYWYLQKPGQSPQLLIYQMSNLASGVPDRFSSSGSGTDFTLRISRVEAEDVGVYYCAQNLELPYTFGGGTKLEIK
B2: unnamed (protein)
chain 1: QVQLVQSGAEVKKPGASVKVSCKASGYTFTSHWMHWVRQAPGQGLEWIGEFNPSNGRTNYNEKFKSKATMTVDTSTNTAYMELSSLRSEDTAVYYCASRDYDYDGRYFDYWGQGTLVTVSS
chain 2: DIQMTQSPSSLSASVGDRVTITCSASSSVTYMYWYQQKPGKAPKLLIYDTSNLASGVPSRFSGSGSGTDYTFTISSLQPEDIATYYCQQWSSHIFTFGQGTKVEIK
B3: unnamed (protein)
chain 1: EVQLVESGGGLVKPGGSLKLSCAASGYTFTSYVMHWVRQAPGKGLEWIGYINPYNDGTKYNEKFQGRVTISSDKSISTAYMELSSLRSEDTAMYYCARGTYYYGTRVFDYWGQGTLVTVSS
chain 2: DIVMTQSPATLSLSPGERATLSCRSSKSLQNVNGNTYLYWFQQKPGQSPQLLIYRMSNLNSGVPDRFSGSGSGTEFTLTISSLEPEDFAVYYCMQHLEYPITFGAGTKLEIK
B4: unnamed (protein)
chain 1: QVQLVQSGGGLVQAGGSLRLSCAASGGTFATSPMGWLRQAPGKGTEFVAAISPSGGDRIYADSVKGRFTISRDNAGYFIYLQMNSLKPEDTAVYYCAVRRRFDGTSYYTGDYDSWGQGTLVTVSS
chain 2: EIVLTQSPGTLSLSPGERATLSCRASQSVSSSYLAWYQQKPGQAPRLLIYDASSRATGIPDRFSGSGSGTDFTLTISRLEPEDFAVYYCQQYSYSPVTFGQGTKVEIK
B5: unnamed (protein)
chain 1: QVQLVQSGAEVKKPGASVKVSCKASGFNIKDTYIHWVRQAPGQRLEWMGRIDPANGYTKYDPKFQGRVTITADTSASTAYMELSSLRSEDTAVYYCAREGYYGNYGVYAMDYWGQGTLVTVSS
chain 2: DIQMTQSPSSLSASVGDRVTITCKTSQDINKYMAWYQQTPGKAPRLLIHYTSALQPGIPSRFSGSGSGRDYTFTISSLQPEDIATYYCLQYDNLWTFGQGTKVEIK
B6: unnamed (protein)
chain 1: QVQLVQSGAEVKKPGSSVMVSCQASGGLLEDYIINWVRQAPGQGPEWMGGIIPVLGTVHYGPKFQGRVTITADESTDTAYMELSSLRSEDTAMYYCATETALVVSETYLPHYFDNWGQGTLVTVSS
chain 2: DIQMTQSPSSLSAAVGDRVTITCQASQDIVNYLNWYQQKPGKAPKLLIYVASNLETGVPSRFSGSGSGTDFSLTISSLQPEDVATYYCQQYDNLPLTFGGGTKVEIK
B7: unnamed (protein)
chain 1: EVQLVESGGDLVQPGRSLRLSCAASGFIFSNYGMSWVRQAPGKGLEWVATISSASTYSYYPDSVKGRFTISRDNAKNSLYLQMNSLRVEDTALYYCGRHSDGNFAFGYWGQGTLVTVSS
chain 2: DVLMTQSPLSLPVTPGEPASISCRSSRNIVHINGDTYLEWYLQKPGQSPQLLIYKVSNRFSGVPDRFSGSGSGTDFTLKISRVEAEDVGVYYCFQGSLLPWTFGQGTKVEIK
B8: unnamed (protein)
chain 1: QVTLRESGPALVKPTQTLTLTCTVSGFSLTSYSVHWVRQPPGKGLEWLGVIWASGGTDYNSALMSRLSISKDTSRNQVVLTMTNMDPVDTATYYCARDPPSSLLRLDYWGRGTPVTVSS
chain 2: DIVMTQSPDSLAVSLGERATINCKSSQSLLNSGNQKNYLAWYQQKPGQPPKLLIYGASTRESGVPDRFSGSGSGTDFTLTISSLQAEDVAVYYCQNVHSFPFTFGGGTKLEIK
B9: unnamed (protein)
chain 1: EVQLQQSGPDLVKPGASVKISCKASGYSFTGYYMHWVKQSPGKGLEWIGRINPNNGVTLYNQKFKDKATLTVDKSSTTAYMELRSLTSEDSAVYYCARSTMITNYVMDYWGQGTSVTVSS
chain 2: SIVMTQTPTSLLVSAGDRVTITCKASQSVSNDVAWYQQKPGQSPKLLISYTSSRYAGVPDRFSGSGYGTDFTLTISSVQAEDAAVYFCQQDYNSPPTFGGGTKLEIK
B10: unnamed (protein)
chain 1: EVQLVQSGAEVKKPGESLKISCKGSGYIFTNYWIAWVRQMPGKGLESMGIIYPGDSDIRYSPSFQGQVTISADKSITTAYLQWSSLKASDTAMYYCARHDIEGFDYWGRGTLVTVSS
chain 2: EIVLTQSPGTLSLSPGERATLSCRASQSVSSSFFAWYQQKPGQAPRLLIYGASSRATGIPDRLSGSGSGTDFTLTITRLEPEDFAVYYCQQYDSSAITFGQGTRLEIK
B11: unnamed (protein)
chain 1: QVQLVQSGAEVKKPGASVKISCKASGYSFTAYYIHWVKQAPGQGLEWIGYISNYNRATNYNQKFKGRVTFTTDTSTSTAYMELRSLRSDDTAVYYCARDYDYDVGMDYWGQGTLVTVSS
chain 2: DIVMTQSPDSLAVSLGERATISCRASESVDNYGISFMKWFQQKPGQPPKLLIYAASNQGSGVPDRFSGSGSGTDFTLTISSLQAEDVAVYYCQQSKEVPWTFGGGTKVEIK
B12: unnamed (protein)
chain 1: QVQLVQSGAEVKKPGASVKVSCKVSGYTLTELSIHWVRQAPGKGLEWMGGFDPEENEIVYAQRFQGRVTMTEDTSTDTAYMELSSLRSEDTAVYYCAIVGSFSPLTLGLWGQGTMVTVSS
chain 2: QSVLTQPPSVSGAPGQRVTISCTGSGSNIGAPYDVSWYQQLPGTAPKLLIYHNNKRPSGVPDRFSGSKSGTSASLAITGLQAEDEADYYCATVEAGLSGSVFGGGTKLTVL
B13: unnamed (protein)
chain 1: QVQLQESGPGLVKPSETLSLTCTVSGFSLLSYGVHWVRQPPGKGLEWLGVIWTGGTTNYNSALMSRFTISKDDSKNTVYLKMNSLKTEDTAIYYCARYYYGMDYWGQGTLVTVSS
chain 2: DIQMTQSPSSLSASVGDRVTITCKASQDVRNTVAWYQQKPGKAPKLLIYSSSYRNTGVPDRFSGSGSGTDFTLTISSLQAEDVAVYYCQQHYITPYTFGGGTKVEIK
B14: unnamed (protein)
chain 1: QVQLQESGPGLVKPSQTLSLTCTVSGGSISSGDYYWSWIRQPPGKGLEWIGYIYYSGSTDYNPSLKSRVTMSVDTSKNQFSLKVNSVTAADTAVYYCARVSIFGVGTFDYWGQGTLVTVSS
chain 2: EIVMTQSPATLSLSPGERATLSCRASQSVSSYLAWYQQKPGQAPRLLIYDASNRATGIPARFSGSGSGTDFTLTISSLEPEDFAVYYCHQYGSTPLTFGGGTKAEIK
B15: unnamed (protein)
chain 1: QVQLVESGGGVVQPGRSLRLDCKASGITFSNSGMHWVRQAPGKGLEWVAVIWYDGSKRYYADSVKGRFTISRDNSKNTLFLQMNSLRAEDTAVYYCATNDDYWGQGTLVTVSS
chain 2: EIVLTQSPATLSLSPGERATLSCRASQSVSSYLAWYQQKPGQAPRLLIYDASNRATGIPARFSGSGSGTDFTLTISSLEPEDFAVYYCQQSSNWPRTFGQGTKVEIK
B16: unnamed (protein)
chain 1: QVTLRESGPALVKPTQTLTLTCTFSGFSLSTAGMSVGWIRQPPGKALEWLADIWWDDKKHYNPSLKDRLTISKDTSKNQVVLKVTNMDPADTATYYCARDMIFNFYFDVWGQGTTVTVSS
chain 2: DIQMTQSPSTLSASVGDRVTITCSASSRVGYMHWYQQKPGKAPKLLIYDTSKLASGVPSRFSGSGSGTEFTLTISSLQPDDFATYYCFQGSGYPFTFGGGTKVEIK
B17: unnamed (protein)
chain 1: EVQLVESGGGLVKPGGSLKLSCAASGFAFSIYDMSWVRQTPEKCLEWVAYISSGGGTTYYPDTVKGRFTISRDNAKNTLYLQMSSLKSEDTAMYYCARHSGYGTHWGVLFAYWGQGTLVTVSA
chain 2: DIQMTQTTSSLSASLGDRVTISCRASQDISNYLNWYQQKPDGTVKLLIYYTSILHSGVPSRFSGSGSGTDYSLTISNLEQEDFATYFCQQGNTLPWTFGCGTKLEI
B18: unnamed (protein)
chain 1: QVQLQQSGPELKKPGASVKVSCKDSGYAFSSSWMNWVRQAPGQGLEWIGRIYPGDGDTNYNGKFQGRVTITADKSSSTAYMELSSLRSEDTAVYFCARSGLLRYAMDYWGQGTLVTVSS
chain 2: DIQMTQSPSSLSASVGDRVTITCRASQDIRNYLNWYQQKPGKAVKLLIYYTSRLLPGVPSRFSGSGSGTDYSLTISSQEQEDIGTYFCQQGNTLPWTFGQGTKVEIR
B19: unnamed (protein)
chain 1: QVQLVQSGAEVKKPGASVKVSCKAFGYPFTDYLLHWVRQAPGQGLEWVGWLNPYSGDTNYAQKFQGRVTMTRDTSISTAYMELSRLRSDDTAVYYCTRTTLISVYFDYWGQGTMVTVSS
chain 2: DIQMTQSPSSVSASVGDRVTIACRASQNIRNILNWYQQRPGKAPQLLIYAASNLQSGVPSRFSGSGSGTDFTLTINSLQPEDFATYYCQQSYSMPRTFGGGTKLEIK

Experiment: patients with anti-drug antibodies; higher = more immunogenic

Compared with B1, B2 is higher in “patients with anti-drug antibodies” value: 0% for the first, 10% for the second.

Compared with B4, B5 is higher in “patients with anti-drug antibodies” value: 0% for the first, 9% for the second.

Compared with B6, B7 is lower in “patients with anti-drug antibodies” value: 28% for the first, 4.2% for the second.

Going from B8 to B9, the “patients with anti-drug antibodies” value rises from 13% to 72.5%.

First: B10
Second: B11
The “patients with anti-drug antibodies” value of the first is lower: 3.3% for the first, 29% for the second.

Compared with B12, B13 is higher in “patients with anti-drug antibodies” value: 3.1% for the first, 21.2% for the second.

Going from B14 to B15, the “patients with anti-drug antibodies” value rises from 4.1% to 7.7%.

Compared with B16, B17 is higher in “patients with anti-drug antibodies” value: 1.5% for the first, 59% for the second.

Compared with B18, B19 is lower in “patients with anti-drug antibodies” value: 2.5% for the first, 0.9% for the second.

With B3 the “patients with anti-drug antibodies” value was 17.5% and 1%.
